Measured values taken from patent US20250129145A1 (Ablynx, published 2025).

B1: TPP-66093 (VHH)
chain: EVQLVESGGGVVQPGGSLRLSCAASGLTFSSYAMGWFRQAPGKERERVVSISRGGGYTYYADSVKGRFTISRDNSKNTVYLQMNSLRPEDTALYYCAAARYWATGSEYEFDYWGQGTLVTVSSGGGGSGGGGSGGGGSGGGGSGGGGSGGGGSGGGGSEVQLVESGGGVVQPGGSLRLSCAASGFTFRSFGMSWVRQAPGKGPEWVSSISGSGSDTLYADSVKGRFTISRDNSKNTLYLQMNSLRPEDTALYYCTIGGSLSRSSQGTLVTVSSA
notes: also called ALBX00002-35GS-ALB23002-A; ALBX00002-35GS-Alb223
B2: TPP-66094 (VHH)
chain: EVQLVESGGGVVQPGDSLRLSCAASGGTFSTYVMGWFRQAPGKEREFVSAISQNSIHTYYANSVKGRFTISRDNSKNTVYLQLNSLRPEDTALYYCAASRFTSWYTADYEYDYWGQGTLVTVSSGGGGSGGGGSGGGGSGGGGSGGGGSGGGGSGGGGSEVQLVESGGGVVQPGGSLRLSCAASGFTFRSFGMSWVRQAPGKGPEWVSSISGSGSDTLYADSVKGRFTISRDNSKNTLYLQMNSLRPEDTALYYCTIGGSLSRSSQGTLVTVSSA
notes: also called T023500029-35GS-ALB23002-A; T023500029-35GS-Alb223
B3: TPP-66099 (VHH)
chain: EVQLVESGGGVVQPGGSLRLSCAASGFTFRSFGMSWVRQAPGKGPEWVSSISGSGSDTLYADSVKGRFTISRDNSKNTLYLQMNSLRPEDTALYYCTIGGSLSRSSQGTLVTVSSGGGGSGGGGSGGGGSGGGGSGGGGSGGGGSGGGGSEVQLVESGGGVVQPGGSLRLSCAASGFTFRSFGMSWVRQAPGKGPEWVSSISGSGSDTLYADSVKGRFTISRDNSKNTLYLQMNSLRPEDTALYYCTIGGSLSRSSQGTLVTVSSGGGGSGGGGSGGGGSGGGGSGGGGSGGGGSGGGGSEVQLVESGGGVVQPGGSLRLSCAASGFTFRSFGMSWVRQAPGKGPEWVSSISGSGSDTLYADSVKGRFTISRDNSKNTLYLQMNSLRPEDTALYYCTIGGSLSRSSQGTLVTVSSA
notes: also called ALB23002-35GS-ALB23002-35GS-ALB23002-A
B4: TPP-66097 (other)
chain: LKEAKEKAIEELKKAGITSDYYFDLINKAKTVEGVNALKDEILKAGGGGSGGGGSGGGGSGGGGSGGGGSGGGGSGGGGSEVQLVESGGGVVQPGGSLRLSCAASGFTFRSFGMSWVRQAPGKGPEWVSSISGSGSDTLYADSVKGRFTISRDNSKNTLYLQMNSLRPEDTALYYCTIGGSLSRSSQGTLVTVSSA
notes: also called ABD-35GS-ALB23002-A; ABD-35GS-Alb223
B5: TPP-66100 (VHH)
chain: EVQLVESGGGVVQPGGSLRLSCAASGLTFSSYAMGWFRQAPGKERERVVSISRGGGYTYYADSVKGRFTISRDNSKNTVYLQMNSLRPEDTALYYCAAARYWATGSEYEFDYWGQGTLVTVSSGGGGSGGGGSGGGGSGGGGSGGGGSGGGGSGGGGSEVQLVESGGGVVQPGDSLRLSCAASGGTFSTYVMGWFRQAPGKEREFVSAISQNSIHTYYANSVKGRFTISRDNSKNTVYLQLNSLRPEDTALYYCAASRFTSWYTADYEYDYWGQGTLVTVSSGGGGSGGGGSGGGGSGGGGSGGGGSGGGGSGGGGSEVQLVESGGGVVQPGGSLRLSCAASGFTFRSFGMSWVRQAPGKGPEWVSSISGSGSDTLYADSVKGRFTISRDNSKNTLYLQMNSLRPEDTALYYCTIGGSLSRSSQGTLVTVSSA
notes: also called ALBX00002-35GS-T023500029-35GS-ALB23002-A
B6: TPP-66101 (other)
chain: DLGKKLLEAARAGQDDEVRELLKAGADVNAKDYFSHTPLHLAARNGHLKIVEVLLKAGADVNAKDFAGKTPLHLAANEGHLEIVEVLLKAGADVNAQDIFGKTPADIAADAGHEDIAEVLQKAAGGGGSGGGGSGGGGSGGGGSGGGGSGGGGSGGGGSEVQLVESGGGVVQPGGSLRLSCAASGFTFRSFGMSWVRQAPGKGPEWVSSISGSGSDTLYADSVKGRFTISRDNSKNTLYLQMNSLRPEDTALYYCTIGGSLSRSSQGTLVTVSSGGGGSGGGGSGGGGSGGGGSGGGGSGGGGSGGGGSEVQLVESGGGVVQPGGSLRLSCAASGFTFRSFGMSWVRQAPGKGPEWVSSISGSGSDTLYADSVKGRFTISRDNSKNTLYLQMNSLRPEDTALYYCTIGGSLSRSSQGTLVTVSSA
notes: also called DARPIN-35GS-ALB23002-35GS-ALB23002-A
B7: ALB00223 (VHH)
VHH: EVQLVESGGGVVQPGGSLRLSCAASGFTFRSFGMSWVRQAPGKGPEWVSSISGSGSDTLYADSVKGRFTISRDNSKNTLYLQMNSLRPEDTALYYCTIGGSLSRSSQGTLVTVSS
notes: also called ALB00223-A; Alb223
B8: IRR00164 (VHH)
VHH: EVQLVESGGGVVQPGGSLRLSCAASGFTFRSFGMSWVRQAPGKGPEWVSSISGSGSDTLYADSVKGRFTISRDNSKNTLYLQMNSLRPEDTALYYCTIGGSLSRSSQGTLVTVSS
notes: also called CNB-9GS-CNB-9GS-CNB-9GS-ALB23002-A; CNB-CNB-CNB-Alb223
B9: TPP-66095 (other)
chain: DLGKKLLEAARAGQDDEVRELLKAGADVNAKDYFSHTPLHLAARNGHLKIVEVLLKAGADVNAKDFAGKTPLHLAANEGHLEIVEVLLKAGADVNAQDIFGKTPADIAADAGHEDIAEVLQKAAGGGGSGGGGSGGGGSGGGGSGGGGSGGGGSGGGGSEVQLVESGGGVVQPGGSLRLSCAASGFTFRSFGMSWVRQAPGKGPEWVSSISGSGSDTLYADSVKGRFTISRDNSKNTLYLQMNSLRPEDTALYYCTIGGSLSRSSQGTLVTVSSA
notes: also called DARPIN-35GS-ALB23002-A; DARPIN-35GS-Alb223
B10: TPP-66102 (VHH)
chain: EVQLVESGGGVVQPGGSLRLSCAASGFTFRSFGMSWVRQAPGKGPEWVSSISGSGSDTLYADSVKGRFTISRDNSKNTLYLQMNSLRPEDTALYYCTIGGSLSRSSQGTLVTVSSGGGGSGGGGSGGGGSGGGGSGGGGSGGGGSGGGGSEVQLVESGGGVVQPGGSLRLSCAASGFTFRSFGMSWVRQAPGKGPEWVSSISGSGSDTLYADSVKGRFTISRDNSKNTLYLQMNSLRPEDTALYYCTIGGSLSRSSQGTLVTVSSGGGGSGGGGSGGGGSGGGGSGGGGSGGGGSGGGGSEVQLVESGGGVVQPGGSLRLSCAASGFTFRSFGMSWVRQAPGKGPEWVSSISGSGSDTLYADSVKGRFTISRDNSKNTLYLQMNSLRPEDTALYYCTIGGSLSRSSQGTLVTVSSGGGGSGGGGSGGGGSGGGGSGGGGSGGGGSGGGGSEVQLVESGGGVVQPGGSLRLSCAASGFTFRSFGMSWVRQAPGKGPEWVSSISGSGSDTLYADSVKGRFTISRDNSKNTLYLQMNSLRPEDTALYYCTIGGSLSRSSQGTLVTVSSA
notes: also called ALB23002-35GS-ALB23002-35GS-ALB23002-35GS-ALB23002-A

Tests used:
human serum albumin [1] = molecular target: T1, human serum albumin (human, UniProt P02768 25-609); experiment: SPR, pH 7.4, immobilized HSA density ~3000 RU
T1 construct: Bought protein; also called HSA
Protocol: (§1) The purified multivalent albumin binding constructs were also tested in SPR on different densities of HSA (100 RU until 6700 RU) to detect avidity.

human serum albumin [2] = molecular target: T1, human serum albumin; experiment: SPR, pH 7.4, immobilized HSA density ~500 RU
Protocol: as §1

human serum albumin [3] = molecular target: T1, human serum albumin; experiment: SPR Biacore 8K+, HSA immobilized (C1 chip), pH 7.4, bivalent analyte fit (kd1)
Protocol: (§2) The affinities of the purified multivalent albumin binding constructs for HSA at pH 7.4 was determined on a Biacore 8K+ instrument. HSA (Sigma-Aldrich—Sigma, Cat No. A8763) was immobilized on a Series S Sensor Chip C1. The multivalent albumin binding proteins as described in Table 12 above were injected at 9 different concentrations (between 1.6 and 2500 nM) and allowed to associate for 120 s at 30 μL/min and dissociate for 600 s.

human serum albumin [4] = molecular target: T1, human serum albumin; experiment: SPR, pH 7.4, immobilized HSA density ~6700 RU
Protocol: as §1

human serum albumin [5] = molecular target: T1, human serum albumin; experiment: SPR Biacore 8K+, HSA immobilized (C1 chip), pH 7.4, bivalent analyte fit
Protocol: as §2

human serum albumin [6] = molecular target: T1, human serum albumin; experiment: SPR Biacore 8K+, HSA immobilized (C1 chip), pH 7.4, bivalent analyte fit (ka1)
Protocol: as §2

human serum albumin [7] = molecular target: T1, human serum albumin; experiment: SPR, pH 7.4, immobilized HSA density ~100 RU
Protocol: as §1

human serum albumin [8] = molecular target: T1, human serum albumin; experiment: SPR Biacore 8K+, HSA immobilized (C1 chip), pH 7.4, bivalent analyte fit (KD1)
Protocol: as §2

mouse serum albumin [9] = molecular target: T2, mouse serum albumin (mouse, UniProt P07724 25-608); experiment: SPR ProteOn XPR36, MSA immobilized (GLC sensor), pH 6.0, Langmuir 1:1 fit
T2 construct: Bought protein; also called MSA
Protocol: (§3) In a first experiment, the affinities of monovalent (ALB00223) and a bivalent ALB23002 construct (T032200003) for human and mouse serum albumin (HSA and MSA, respectively) at pH 6.0 and pH 7.4 were determined on a ProteOn XPR36 instrument (Bio-rad Laboratories, Inc.). HSA or MSA (HSA: Sigma-Aldrich—Sigma, Cat No. A8763; MSA: Albumin Bioscience, Cat No. 2601) was immobilized via amine coupling on a GLC sensor (short matrix, normal capacity). The constructs were injected at 6 different concentrations (between 0.95 and 500 nM) and allowed to associate for 120 s at 45 μL/min and dissociate for 600 s. Evaluation of the sensorgrams was based on the Kinetic Langmuir 1:1 (simultaneous ka/kd) fit.

human serum albumin [10] = molecular target: T1, human serum albumin; experiment: SPR ProteOn XPR36, HSA immobilized (GLC sensor), pH 6.0, Langmuir 1:1 fit
Protocol: as §3

mouse serum albumin [11] = molecular target: T2, mouse serum albumin; experiment: SPR ProteOn XPR36, MSA immobilized (GLC sensor), pH 7.4, Langmuir 1:1 fit
Protocol: as §3

human serum albumin [12] = molecular target: T1, human serum albumin; experiment: SPR ProteOn XPR36, HSA immobilized (GLC sensor), pH 7.4, Langmuir 1:1 fit
Protocol: as §3

T2 sequence (P07724 25-608 limits assumed): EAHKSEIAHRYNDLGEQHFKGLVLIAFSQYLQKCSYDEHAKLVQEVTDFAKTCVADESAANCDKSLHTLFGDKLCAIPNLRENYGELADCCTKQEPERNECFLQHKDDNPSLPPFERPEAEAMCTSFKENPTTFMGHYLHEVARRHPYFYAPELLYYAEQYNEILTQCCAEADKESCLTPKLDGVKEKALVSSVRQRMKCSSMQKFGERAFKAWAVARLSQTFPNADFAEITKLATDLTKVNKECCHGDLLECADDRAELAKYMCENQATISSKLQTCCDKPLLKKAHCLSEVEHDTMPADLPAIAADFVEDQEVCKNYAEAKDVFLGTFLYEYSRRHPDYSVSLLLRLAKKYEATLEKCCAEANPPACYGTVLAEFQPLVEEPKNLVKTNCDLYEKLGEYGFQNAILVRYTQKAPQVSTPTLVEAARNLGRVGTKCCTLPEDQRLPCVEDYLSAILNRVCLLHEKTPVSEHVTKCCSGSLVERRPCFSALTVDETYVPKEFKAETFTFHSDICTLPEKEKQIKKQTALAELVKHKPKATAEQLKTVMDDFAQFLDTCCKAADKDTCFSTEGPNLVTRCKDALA

Row | Binder | koff (human serum albumin [1]) [s⁻¹] | koff (human serum albumin [2]) [s⁻¹] | koff (human serum albumin [3]) [s⁻¹] | koff (human serum albumin [4]) [s⁻¹] | ka2 (bivalent analyte fit) (human serum albumin [5]) [M⁻¹ s⁻¹] | kd2 (bivalent analyte fit) (human serum albumin [5]) [s⁻¹] | kon (human serum albumin [6]) [M⁻¹ s⁻¹] | koff (human serum albumin [7]) [s⁻¹] | Kd (human serum albumin [8]) [nM] | also measured
1 | B1 | 6.6e-05 | 8.6e-05 | 0.00012 | 5.2e-05 | 0.00012 | 0.00084 | 180000 | 0.00011 | 0.66 | 
2 | B2 | 7.6e-05 | 9.3e-05 | 0.00013 | 5.6e-05 | 0.00027 | 0.0022 | 270000 | 0.00012 | 0.49 | 
3 | B3 | 7.2e-05 | 0.00018 | 0.0005 | 3.6e-05 | 0.0022 | 0.0038 | 370000 | 0.00041 | 1.4 | 
4 | B4 | 8.4e-05 | 0.00012 | 1.5e-05 | 6e-05 | 0.0023 | 0.0088 | 180000 | 7.4e-05 | 0.082 | 
5 | B5 | 0.00036 | 0.00032 | 0.00034 | 0.00032 | 0.0074 | 0.026 | 200000 | 0.00027 | 1.7 | 
6 | B6 | 0.0001 | 0.00023 | 0.0015 | 4e-05 | 95 | 65 | 300000 | 0.00076 | 5 | 
7 | B7 |  |  |  |  |  |  |  |  |  | Kd (mouse serum albumin [9]): 6.02 nM; koff (mouse serum albumin [9]): 0.00618 s⁻¹; kon (mouse serum albumin [9]): 1.03e+06 M⁻¹ s⁻¹; Kd (human serum albumin [10]): 0.69 nM; koff (human serum albumin [10]): 0.000593 s⁻¹; kon (human serum albumin [10]): 853000 M⁻¹ s⁻¹; Kd (mouse serum albumin [11]): 9.09 nM; koff (mouse serum albumin [11]): 0.00697 s⁻¹; kon (mouse serum albumin [11]): 767000 M⁻¹ s⁻¹; Kd (human serum albumin [12]): 1.37 nM; koff (human serum albumin [12]): 0.000809 s⁻¹; kon (human serum albumin [12]): 592000 M⁻¹ s⁻¹
8 | B8 | 0.0016 | 0.002 |  | 0.0012 |  |  |  |  |  | 
9 | B9 | 0.00016 | 0.00038 |  | 8.3e-05 |  |  |  | 0.00021 |  | 
10 | B10 | 3.6e-05 | 0.00012 | 0.00055 | 1.4e-05 | 0.005 | 0.0066 | 280000 | 0.00043 | 2 | 
